Test results taken from US20230002460A1 (YUHAN, published 2023).

molecular target: GDF15 receptors GFRAL and RET, overexpressed together on HEK293 cells (UniProt Q6UXV0 19-394; P07949 29-1114, limits assumed); test: cell-based or functional assay
Sequence (Q6UXV0 19-394 limits assumed, chain 1 of 2): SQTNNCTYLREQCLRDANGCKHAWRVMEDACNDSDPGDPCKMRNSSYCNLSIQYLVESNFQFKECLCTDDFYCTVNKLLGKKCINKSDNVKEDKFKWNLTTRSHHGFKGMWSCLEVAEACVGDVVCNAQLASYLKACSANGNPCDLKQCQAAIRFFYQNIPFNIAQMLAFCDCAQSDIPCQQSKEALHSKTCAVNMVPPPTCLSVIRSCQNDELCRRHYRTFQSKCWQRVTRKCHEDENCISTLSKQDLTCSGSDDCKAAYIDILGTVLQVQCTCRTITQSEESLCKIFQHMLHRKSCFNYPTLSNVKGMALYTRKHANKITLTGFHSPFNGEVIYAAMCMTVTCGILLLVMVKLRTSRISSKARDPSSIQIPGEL
Sequence (P07949 29-1114 limits assumed, chain 2 of 2): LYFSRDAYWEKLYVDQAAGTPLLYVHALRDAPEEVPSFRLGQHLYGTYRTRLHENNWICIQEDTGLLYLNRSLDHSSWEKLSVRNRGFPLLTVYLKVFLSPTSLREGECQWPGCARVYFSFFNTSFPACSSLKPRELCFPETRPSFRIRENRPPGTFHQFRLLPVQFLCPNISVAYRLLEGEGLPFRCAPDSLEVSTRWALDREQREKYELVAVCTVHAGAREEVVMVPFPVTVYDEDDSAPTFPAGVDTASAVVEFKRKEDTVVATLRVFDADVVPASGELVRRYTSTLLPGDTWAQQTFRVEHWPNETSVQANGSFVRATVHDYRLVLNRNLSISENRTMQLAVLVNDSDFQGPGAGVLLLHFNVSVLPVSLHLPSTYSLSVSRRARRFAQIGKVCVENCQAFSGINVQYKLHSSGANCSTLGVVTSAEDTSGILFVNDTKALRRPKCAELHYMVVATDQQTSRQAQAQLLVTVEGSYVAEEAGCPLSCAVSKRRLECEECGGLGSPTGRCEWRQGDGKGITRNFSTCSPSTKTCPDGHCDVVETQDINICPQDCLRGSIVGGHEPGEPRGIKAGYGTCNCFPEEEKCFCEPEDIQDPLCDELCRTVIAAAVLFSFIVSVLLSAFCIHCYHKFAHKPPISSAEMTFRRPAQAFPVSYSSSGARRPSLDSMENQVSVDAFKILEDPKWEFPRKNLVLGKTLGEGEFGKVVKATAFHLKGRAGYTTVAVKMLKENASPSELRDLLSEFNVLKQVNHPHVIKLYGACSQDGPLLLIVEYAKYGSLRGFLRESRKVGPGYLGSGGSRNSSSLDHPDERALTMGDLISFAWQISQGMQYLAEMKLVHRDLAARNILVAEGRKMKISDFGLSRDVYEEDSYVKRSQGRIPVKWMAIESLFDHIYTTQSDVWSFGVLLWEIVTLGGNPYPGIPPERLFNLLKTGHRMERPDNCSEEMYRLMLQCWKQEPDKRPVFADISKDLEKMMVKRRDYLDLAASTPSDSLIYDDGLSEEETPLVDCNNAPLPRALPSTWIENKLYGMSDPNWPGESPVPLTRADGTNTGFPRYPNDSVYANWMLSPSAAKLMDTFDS

| EC50 [nM] | Emax (%) [relative to FWT 100%] [%] | Binder |
| --- | --- | --- |
| 6.5 | 87.6 | long-acting GDF15 fusion protein ΔN2, D93E (Fc fusion) chain 1: APALAGGPSVFLFPPKPKDTLMISRTPEVTCVVVDVSHEDPEVKFNWYVDGVEVHNAKTKPREEQYNSTYRVVSVLTVLHQDWLNGKEYKCKVSNKALPAPIEKTISKAKGQPREPQVYTLPPSREEMTKNQVSLWCLVKGFYPSDIAVEWESNGQPENNYKTTPPVLDSDGSFFLYSKLTVDKSRWQQGNVFSCSVMHEALHNHYTQKSLSLSPGKGGGGSGGGGSGGGGSGGGGSGGGGSNGDHCPLGPGRCCRLHTVRASLEDLGWADWVLSPREVQVTMCIGACPSQFRAANMHAQIKTSLHRLKPDTVPAPCCVPASYNPMVLIQKTETGVSLQTYDDLLAKDCHCI chain 2: not shown |
| 9 | 59.1 | long-acting GDF15 fusion protein ΔN2, D93L (Fc fusion) chain 1: APALAGGPSVFLFPPKPKDTLMISRTPEVTCVVVDVSHEDPEVKFNWYVDGVEVHNAKTKPREEQYNSTYRVVSVLTVLHQDWLNGKEYKCKVSNKALPAPIEKTISKAKGQPREPQVYTLPPSREEMTKNQVSLWCLVKGFYPSDIAVEWESNGQPENNYKTTPPVLDSDGSFFLYSKLTVDKSRWQQGNVFSCSVMHEALHNHYTQKSLSLSPGKGGGGSGGGGSGGGGSGGGGSGGGGSNGDHCPLGPGRCCRLHTVRASLEDLGWADWVLSPREVQVTMCIGACPSQFRAANMHAQIKTSLHRLKPDTVPAPCCVPASYNPMVLIQKTLTGVSLQTYDDLLAKDCHCI chain 2: not shown |
| 22.6 | 99.6 | long-acting GDF15 fusion protein ΔN2, D93N (Fc fusion) chain 1: APALAGGPSVFLFPPKPKDTLMISRTPEVTCVVVDVSHEDPEVKFNWYVDGVEVHNAKTKPREEQYNSTYRVVSVLTVLHQDWLNGKEYKCKVSNKALPAPIEKTISKAKGQPREPQVYTLPPSREEMTKNQVSLWCLVKGFYPSDIAVEWESNGQPENNYKTTPPVLDSDGSFFLYSKLTVDKSRWQQGNVFSCSVMHEALHNHYTQKSLSLSPGKGGGGSGGGGSGGGGSGGGGSGGGGSNGDHCPLGPGRCCRLHTVRASLEDLGWADWVLSPREVQVTMCIGACPSQFRAANMHAQIKTSLHRLKPDTVPAPCCVPASYNPMVLIQKTNTGVSLQTYDDLLAKDCHCI chain 2: not shown |
| 7.7 | 147 | long-acting GDF15 fusion protein (dimer) FM5 + Fc_hole (ΔN2, S64K) (Fc fusion) chain 1: APALAGGPSVFLFPPKPKDTLMISRTPEVTCVVVDVSHEDPEVKFNWYVDGVEVHNAKTKPREEQYNSTYRVVSVLTVLHQDWLNGKEYKCKVSNKALPAPIEKTISKAKGQPREPQVYTLPPSREEMTKNQVSLWCLVKGFYPSDIAVEWESNGQPENNYKTTPPVLDSDGSFFLYSKLTVDKSRWQQGNVFSCSVMHEALHNHYTQKSLSLSPGKGGGGSGGGGSGGGGSGGGGSGGGGSNGDHCPLGPGRCCRLHTVRASLEDLGWADWVLSPREVQVTMCIGACPSQFRAANMHAQIKTKLHRLKPDTVPAPCCVPASYNPMVLIQKTDTGVSLQTYDDLLAKDCHCI chain 2: not shown |
| 11.9 | 96.3 | long-acting GDF15 fusion protein ΔN2, Q60L (Fc fusion) chain 1: APALAGGPSVFLFPPKPKDTLMISRTPEVTCVVVDVSHEDPEVKFNWYVDGVEVHNAKTKPREEQYNSTYRVVSVLTVLHQDWLNGKEYKCKVSNKALPAPIEKTISKAKGQPREPQVYTLPPSREEMTKNQVSLWCLVKGFYPSDIAVEWESNGQPENNYKTTPPVLDSDGSFFLYSKLTVDKSRWQQGNVFSCSVMHEALHNHYTQKSLSLSPGKGGGGSGGGGSGGGGSGGGGSGGGGSNGDHCPLGPGRCCRLHTVRASLEDLGWADWVLSPREVQVTMCIGACPSQFRAANMHALIKTSLHRLKPDTVPAPCCVPASYNPMVLIQKTDTGVSLQTYDDLLAKDCHCI chain 2: not shown |
| 7 | 43.5 | long-acting GDF15 fusion protein ΔN2, Q60N (Fc fusion) chain 1: APALAGGPSVFLFPPKPKDTLMISRTPEVTCVVVDVSHEDPEVKFNWYVDGVEVHNAKTKPREEQYNSTYRVVSVLTVLHQDWLNGKEYKCKVSNKALPAPIEKTISKAKGQPREPQVYTLPPSREEMTKNQVSLWCLVKGFYPSDIAVEWESNGQPENNYKTTPPVLDSDGSFFLYSKLTVDKSRWQQGNVFSCSVMHEALHNHYTQKSLSLSPGKGGGGSGGGGSGGGGSGGGGSGGGGSNGDHCPLGPGRCCRLHTVRASLEDLGWADWVLSPREVQVTMCIGACPSQFRAANMHANIKTSLHRLKPDTVPAPCCVPASYNPMVLIQKTDTGVSLQTYDDLLAKDCHCI chain 2: not shown |
| 7.9 | 100 | long-acting GDF15 fusion protein ΔN2, S64Q (Fc fusion) chain 1: APALAGGPSVFLFPPKPKDTLMISRTPEVTCVVVDVSHEDPEVKFNWYVDGVEVHNAKTKPREEQYNSTYRVVSVLTVLHQDWLNGKEYKCKVSNKALPAPIEKTISKAKGQPREPQVYTLPPSREEMTKNQVSLWCLVKGFYPSDIAVEWESNGQPENNYKTTPPVLDSDGSFFLYSKLTVDKSRWQQGNVFSCSVMHEALHNHYTQKSLSLSPGKGGGGSGGGGSGGGGSGGGGSGGGGSNGDHCPLGPGRCCRLHTVRASLEDLGWADWVLSPREVQVTMCIGACPSQFRAANMHAQIKTQLHRLKPDTVPAPCCVPASYNPMVLIQKTDTGVSLQTYDDLLAKDCHCI chain 2: not shown |
| 14.9 | 112 | long-acting GDF15 fusion protein ΔN2, T92S (Fc fusion) chain 1: APALAGGPSVFLFPPKPKDTLMISRTPEVTCVVVDVSHEDPEVKFNWYVDGVEVHNAKTKPREEQYNSTYRVVSVLTVLHQDWLNGKEYKCKVSNKALPAPIEKTISKAKGQPREPQVYTLPPSREEMTKNQVSLWCLVKGFYPSDIAVEWESNGQPENNYKTTPPVLDSDGSFFLYSKLTVDKSRWQQGNVFSCSVMHEALHNHYTQKSLSLSPGKGGGGSGGGGSGGGGSGGGGSGGGGSNGDHCPLGPGRCCRLHTVRASLEDLGWADWVLSPREVQVTMCIGACPSQFRAANMHAQIKTSLHRLKPDTVPAPCCVPASYNPMVLIQKSDTGVSLQTYDDLLAKDCHCI chain 2: not shown |
| 1.1 | 12.3 | long-acting GDF15 fusion protein ΔN2, T92E (Fc fusion) chain 1: APALAGGPSVFLFPPKPKDTLMISRTPEVTCVVVDVSHEDPEVKFNWYVDGVEVHNAKTKPREEQYNSTYRVVSVLTVLHQDWLNGKEYKCKVSNKALPAPIEKTISKAKGQPREPQVYTLPPSREEMTKNQVSLWCLVKGFYPSDIAVEWESNGQPENNYKTTPPVLDSDGSFFLYSKLTVDKSRWQQGNVFSCSVMHEALHNHYTQKSLSLSPGKGGGGSGGGGSGGGGSGGGGSGGGGSNGDHCPLGPGRCCRLHTVRASLEDLGWADWVLSPREVQVTMCIGACPSQFRAANMHAQIKTSLHRLKPDTVPAPCCVPASYNPMVLIQKEDTGVSLQTYDDLLAKDCHCI chain 2: not shown |
| 5.6 | 100 | long-acting GDF15 fusion protein ΔN2, S97N (Fc fusion) chain 1: APALAGGPSVFLFPPKPKDTLMISRTPEVTCVVVDVSHEDPEVKFNWYVDGVEVHNAKTKPREEQYNSTYRVVSVLTVLHQDWLNGKEYKCKVSNKALPAPIEKTISKAKGQPREPQVYTLPPSREEMTKNQVSLWCLVKGFYPSDIAVEWESNGQPENNYKTTPPVLDSDGSFFLYSKLTVDKSRWQQGNVFSCSVMHEALHNHYTQKSLSLSPGKGGGGSGGGGSGGGGSGGGGSGGGGSNGDHCPLGPGRCCRLHTVRASLEDLGWADWVLSPREVQVTMCIGACPSQFRAANMHAQIKTSLHRLKPDTVPAPCCVPASYNPMVLIQKTDTGVNLQTYDDLLAKDCHCI chain 2: not shown |
